In the nanobody polyreactivity screen of Harvey et al. (2022):

Assay: yeast display, Sf9 membrane polyspecificity reagent, FACS + sequencing; frameworks hold sequencing errors
In short: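 A synthetic nanobody library was expressed on Saccharomyces cerevisiae BJ5465 by galactose induction for 36–48 hours. The library was stained for 1 hour at 4 °C with 10% biotinylated, detergent-solubilized Sf9 membrane reagent and enriched with streptavidin microbeads before FACS. Low and high (top ~1%) gates were set on anti-HA fluorescence for expression and streptavidin fluorescence for reagent binding, and each polyreactivity label reflects the gate of origin.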

Sequence	polyreactivity (PSR sort gate)
QVQLVESGGGLVQAGGSLRLSCAASGSTFNRYAMGWYRQAPGKERELVAAITSTGGTNYADSVKGRFTISLDNAKNTVYLQMNSLKPEDTAVYYCAKRWLRWRSNYWGQGTQVTVSS	high polyreactivity
QVQLVESGGGLVQAGGSLRLSCAASGSTFNRYAMGWYRQAPGKERELVASISCSGGASTYYADSVKGRFTISRDNAKNTVYLQMNSLKPEDTAVYYCAVSRDSYGGKGSVLYDYWGQGTQVTVSS	low polyreactivity
QVQLVESGGGLVQAGGSLRLSCAASGSTFNRYGMGWYIQAPGKERELVAAISGSNGGTYYADSVKGRFTISRDNAKNTVYLQMNSLKPEDTAVYFCAKVRAYTRLGLTVSMDYWGQGTKVTVSS	high polyreactivity
QVQLVESGGGLVQAGGSLRLSCAASGSTFNRYVMGWYRQAPGKERELVAANGGRTYYADSVKGRFTISRDNAKNTVYLQMNSLKPEDTAVYYCNARSYKHPYYRFDYWGQGTQVTVSS	high polyreactivity
QVQLVESGGGLVQAGGSLRLSCAASGSTFNSYAMGWYRQAPGKERELVAAISWSGGSTYYADSVKGRFTISRDNAKNTVYLQMNSLKPEDTAVYYCNADYWWEYAYGVDYWGQGTQVTVSS	low polyreactivity
QVQLVESGGGLVQAGGSLRLSCAASGSTFNSYARGWYRQAPGTERELVAAITSSVGSTYYADSVKGRFTISRDNAKNTVYLQMNSLKPEDTAVYYCDRDYFNREAFDYWGQGTQVTVSS	low polyreactivity
QVQLVESGGGLVQAGGSLRLSCAASGSTFNYNAMGWYRQAPGKEREFVAAISRSGGSTSYADSVKGRFTLSRDNAKNTVYLQMNSLKPEDTAVYYCAAYYRKTGYDYWGQGTQVTVSS	high polyreactivity
QVQLVESGGGLVQAGGSLRLSCAASGSTFNYNAMGWYRQAPGKERELVAAINRSGGRTYYADSVKGRFTISRDNAKNTVYLKMNSLKPEDTAVYYCAKRYYKSLNRDEFDSWGQGTQVTVSS	high polyreactivity
QVQLVESGGGLVQAGGSLRLSCAASGSTFNYNAMGWYRQAPGKERELVADISWRGGITYYADSVKGRFTISRDNAKNTVYLQMNSLKPEDTAVYYCNADAESFDDGYWGQGTQVTVSS	low polyreactivity
QVQLVESGGGLVQAGGSLRLSCAASGSTFNYYAMGWYRQAPGKERELVAVITNGGTTYYADSVKGRFTISRDNAKNTVYLQMNSLKPEDTAVYYCAAALLGRSKRFYYWGQGTQVTVSS	high polyreactivity
QVQLVESGGGLVQAGGSLRLSCAASGSTFPANAMGCYRQAPGKERELVATISWSCGRTYYADSVKGRFTISRDNAKNTVYLQMNSLKPEDSAVYYCAKGYYWLSTYGDSRYGYWGQGTQVTVSS	high polyreactivity
QVQLVESGGGLVQAGGSLRLSCAASGSTFPANAMGWYRQAPGKERELVATISWSGGRTYYADSVKGRFTISRDNAKNTVYIQMNSLKPEDTAVYYCAAYPLYRRRWTGDYWGQGTQVTVSS	high polyreactivity
QVQLVESGGGLVQAGGSLRLSCAASGSTFPAYAMGWYRQAPGKERELVAAITRGGSTNYADSEKGRFTISRDNAKNTVYLQMNSLKPEDTAVYYCAADKRYWWRYNYWASRSRGESWGQGTQVTVSS	high polyreactivity
QVQLVESGGGLVQAGGSLRLSCAASGSTFPAYTMGWYRQAPGKERELVAAINVSSGGSTYYADSVKGRFTISRDNAKNTVYLQMNSLKPEDTAVYYCATRYVTTGYDYWGQGTQVTVSS	low polyreactivity
QVQLVESGGGLVQAGGSLRLSCAASGSTFPDYAMGWSRPAPGKERELVATINDGDSTSYADSVKGRFTISRDNAKNTVYLQMNSLKTEDTAVYYCAADIRSNRLYDGGYWGQGTQVTVSS	low polyreactivity
QVQLVESGGGLVQAGGSLRLSCAASGSTFPDYAMGWYRQAPGKDRELVAAISGDSDDTYYADSVKGRFTISRDNAKNTVYLQMNSLKPEDTAVYYCAARRGRAVYSVAYDYWGQGTQVTVSS	high polyreactivity
QVQLVESGGGLVQAGGSLRLSCAASGSTFPDYAMGWYRQAPGKEREFVASITWSDGSTYYADSVKGRFTISRDNAKNTVYLQMNSLKPEDTAVYYCIADYVYYYIPVVYEYDYWGQGTQVTVSS	high polyreactivity
QVQLVESGGGLVQAGGSLRLSCAASGSTFPDYAMGWYRQAPGKERELVAAIDGSSGSTYYADSVKGRFTISRDNAKNSVYLRMYSLKPEDTAVYYCNVVASLYTYGYWGQGTQVTVSS	low polyreactivity
QVQLVESGGGLVQAGGSLRLSCAASGSTFPDYAMGWYRQAPGKERELVAVITIRGGSTYYADSVKGRFTISRDNAKNTVYLQMNSLKPEDTAVYYCAATGQLQGWYDMYYWGQGTQVTVSS	low polyreactivity
QVQLVESGGGLVQAGGSLRLSCAASGSTFPEYGMGWYRQAPGKERELVAAINSRGGNTYYADSVKGRFTISRDNAKKTVYLQMNSLKPEDTAVYYCNRLSSYNMDYWGQGTQVTVSS	high polyreactivity
QVQLVESGGGLVQAGGSLRLSCAASGSTFPFYDMGWYRQAPGKERELVAAIRYTGNTYYADSVKGRFTISRDNAKNTVYLQMNSLKPEDTAVYYCAADADYWAYGYWGQGTQVTVSS	low polyreactivity
QVQLVESGGGLVQAGGSLRLSCAASGSTFPGNAMGWYRQAPGKERELVAAITSTGTTYYADSVKGRFTISRDNAKNTVYLQMNSLKPEDSAVYYCNADRYPDPSTFDYWGQGTLVTVSS	low polyreactivity
